Assay results taken from publication PMC6994640.

Biological target: CgIgR (native, oyster hemocytes) (Crassostrea gigas (endogenous in oyster hemocytes))
Assay: cross-linking

Substance: CgIgR (native, oyster hemocytes) (receptor)
- stoichiometry N: 2
